Reference: article PMC3393660, “Structural Interaction and Functional Regulation of Polycystin-2 by Filamin” (PLoS ONE, 2012)

Legend:
His-FLNCC = biological target: T1, His-FLNCC (human, UniProt Q14315 2144-2725); assay: pull-down; pre-cleared E. coli extracts (250 µl) with GST-PC2N or GST-PC2C incubated with purified His-FLN C-terminus (2 µg); 150 mM NaCl, 1.0 mM CaCl2, 50 mM Tris pH 7.5, room temperature; glutathione-agarose beads; immunoblot with anti-His; details: one partner purified
T1 construct: Filamin-C, human, C-terminus aa A2144-P2725; also called His-tagged FLNCC; not shown: His tag, N-terminal, kept
T1 sequence (looked up): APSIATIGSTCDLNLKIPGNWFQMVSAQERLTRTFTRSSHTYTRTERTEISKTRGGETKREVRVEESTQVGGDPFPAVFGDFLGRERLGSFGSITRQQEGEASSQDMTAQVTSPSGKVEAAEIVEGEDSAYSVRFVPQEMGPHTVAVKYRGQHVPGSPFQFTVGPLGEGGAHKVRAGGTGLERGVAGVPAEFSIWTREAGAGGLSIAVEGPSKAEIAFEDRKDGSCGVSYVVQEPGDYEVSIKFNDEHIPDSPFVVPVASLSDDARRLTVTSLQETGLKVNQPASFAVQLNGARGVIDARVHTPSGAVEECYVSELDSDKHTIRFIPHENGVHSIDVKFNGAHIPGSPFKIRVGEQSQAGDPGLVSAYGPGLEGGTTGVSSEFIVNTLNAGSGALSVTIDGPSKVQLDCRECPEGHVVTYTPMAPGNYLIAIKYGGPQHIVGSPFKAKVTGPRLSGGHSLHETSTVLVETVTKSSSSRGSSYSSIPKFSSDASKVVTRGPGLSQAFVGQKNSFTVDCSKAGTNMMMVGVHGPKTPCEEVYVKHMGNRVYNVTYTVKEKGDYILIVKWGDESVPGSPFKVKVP

His-FLNBC = biological target: T2, His-FLNBC (human, UniProt O75369 2105-2602); assay: as above; details: one partner purified
T2 construct: Filamin-B, human, C-terminus aa 2105-2602; also called His-tagged FLNBC; not shown: His tag, N-terminal, kept
T2 sequence (looked up): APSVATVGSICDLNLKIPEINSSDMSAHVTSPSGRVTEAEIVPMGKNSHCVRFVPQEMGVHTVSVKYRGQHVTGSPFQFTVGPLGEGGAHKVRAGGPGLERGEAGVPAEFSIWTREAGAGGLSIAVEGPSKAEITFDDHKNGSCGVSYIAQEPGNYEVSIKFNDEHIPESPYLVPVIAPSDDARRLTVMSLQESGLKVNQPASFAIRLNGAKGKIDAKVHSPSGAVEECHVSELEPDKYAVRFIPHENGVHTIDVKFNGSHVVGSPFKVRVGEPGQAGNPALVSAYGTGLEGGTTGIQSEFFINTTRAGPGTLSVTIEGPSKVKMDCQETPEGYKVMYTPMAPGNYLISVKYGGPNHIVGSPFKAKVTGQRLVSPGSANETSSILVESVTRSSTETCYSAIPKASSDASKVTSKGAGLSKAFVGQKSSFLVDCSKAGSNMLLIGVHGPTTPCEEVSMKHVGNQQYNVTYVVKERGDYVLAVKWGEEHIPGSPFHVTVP

His-FLNAC [1] = biological target: T3, His-FLNAC (human, UniProt P21333 2150-2647); assay: pull-down; purified GST fusion protein (2 µg) incubated with purified His-FLN C-terminus (2 µg); 150 mM NaCl, 1.0 mM CaCl2, 50 mM Tris pH 7.5, room temperature; glutathione-agarose beads; immunoblot with anti-His; details: both partners purified
T3 construct: Filamin-A, human, C-terminus aa 2150-2647; also called His-tagged FLNAC; not shown: His tag, N-terminal, kept
T3 sequence (looked up): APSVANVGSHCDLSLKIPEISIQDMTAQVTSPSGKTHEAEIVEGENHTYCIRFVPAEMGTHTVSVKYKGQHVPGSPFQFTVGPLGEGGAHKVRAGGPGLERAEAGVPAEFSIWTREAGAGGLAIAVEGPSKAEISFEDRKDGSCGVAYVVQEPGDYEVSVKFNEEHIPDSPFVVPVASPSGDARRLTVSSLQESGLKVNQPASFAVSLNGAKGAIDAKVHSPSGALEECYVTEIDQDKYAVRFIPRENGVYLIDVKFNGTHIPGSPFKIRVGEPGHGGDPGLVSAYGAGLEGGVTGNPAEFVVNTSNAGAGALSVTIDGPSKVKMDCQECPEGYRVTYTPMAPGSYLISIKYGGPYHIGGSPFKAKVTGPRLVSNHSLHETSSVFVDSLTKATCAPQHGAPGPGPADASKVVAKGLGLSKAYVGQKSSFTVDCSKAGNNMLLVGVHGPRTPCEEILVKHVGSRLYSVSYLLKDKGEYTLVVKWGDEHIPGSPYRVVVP

His-FLNAC [2] = biological target: T3, His-FLNAC; assay: pull-down; pre-cleared E. coli extracts (250 µl) with GST-PC2N or GST-PC2C incubated with purified His-FLN C-terminus (2 µg); 150 mM NaCl, 1.0 mM CaCl2, 50 mM Tris pH 7.5, room temperature; glutathione-agarose beads; immunoblot with anti-His; details: one partner purified

Measured: binding result

B1: GST-PC2N (domain or fragment, human, UniProt Q13563 1-215, looked up)
chain: MVNSSRVQPQQPGDAKRPPAPRAPDPGRLMAGCAAVGASLAAPGGLCEQRGLEIEMQRIRQAAARDPPAGAAASPSPPLSSCSRQAWSRDNPGFEAEEEEEEVEGEEGGMVVEMDVEWRPGSRRSAASSAVSSVGARSRGLGGYHGAGHPSGRRRRREDQGPPCPSPVGGGDPLHRHLPLEGQPPRVAWAERLVRGLRGLWGTRLMEESSTNREK
notes: Polycystin-2, human, N-terminus PC2N, amino acids 1-215; in pGEX5X; also called GST-tagged PC2N; source: E. coli BL21 (DE3), in lysate; also purified (commercial GST purification kit)
binds: His-FLNCC | His-FLNBC | His-FLNAC [1]

B2: GST-PC2C (domain or fragment, human, UniProt Q13563 682-968, looked up)
chain: DTYSEVKSDLAQQKAEMELSDLIRKGYHKALVKLKLKKNTVDDISESLRQGGGKLNFDELRQDLKGKGHTDAEIEAIFTKYDQDGDQELTEHEHQQMRDDLEKEREDLDLDHSSLPRPMSSRSFPRSLDDSEEDDDEDSGHSSRRRGSISSGVSYEEFQVLVRRVDRMEHSIGSIVSKIDAVIVKLEIMERAKLKRREVLGRLLDGVAEDERLGRDSEIHREQMERLVREELERWESDDAASQISHGLGTPVGLNGQPRPRSSRPSSSQSTEGMEGAGGNGSSNVHV
notes: Polycystin-2, human, C-terminus PC2C, amino acids 682-968; in pGEX5X; also called GST-tagged PC2C; source: E. coli BL21 (DE3), in lysate; also purified (commercial GST purification kit)
binds: His-FLNAC [2] | His-FLNCC | His-FLNBC
